Experimental data reported in US20160046725A1.

Legend:
[1] = biological target: human Axl receptor on human tumor cells (UniProt P30530); test: flow cytometry on SN12C cells treated 24 h with 9G4, labelled with 9G4 isotype control
[2] = biological target: human Axl receptor on human tumor cells (UniProt P30530); test: cell-based or functional assay
[3] = biological target: human Axl receptor on human tumor cells (UniProt P30530); test: flow cytometry on SN12C cells, untreated (No Ab), labelled with 9G4 isotype control
[4] = biological target: human Axl receptor on human tumor cells (UniProt P30530); test: quantitative flow cytometry (Qifikit) on A431 cells
[5] = biological target: human Axl receptor on human tumor cells (UniProt P30530); test: quantitative flow cytometry (Qifikit) on DU-145 cells
[6] = biological target: human Axl receptor on human tumor cells (UniProt P30530); test: quantitative flow cytometry (Qifikit) on SN12C cells
[7] = biological target: human Axl receptor on human tumor cells (UniProt P30530); test: flow cytometry on SN12C cells, untreated (No Ab), labelled with MAB154
[8] = biological target: human Axl receptor on human tumor cells (UniProt P30530); test: quantitative flow cytometry (Qifikit) on A172 cells
[9] = biological target: human Axl receptor on human tumor cells (UniProt P30530); test: quantitative flow cytometry (Qifikit) on NCI-H125 cells
[10] = biological target: human Axl receptor on human tumor cells (UniProt P30530); test: quantitative flow cytometry (Qifikit) on MDA-MB-231 cells
[11] = biological target: human Axl receptor on human tumor cells (UniProt P30530); test: quantitative flow cytometry (Qifikit) on MDA-MB-435S cells
[12] = biological target: human Axl receptor on human tumor cells (UniProt P30530); test: quantitative flow cytometry (Qifikit) on Calu-1 cells
[13] = biological target: human Axl receptor on human tumor cells (UniProt P30530); test: quantitative flow cytometry (Qifikit) on PC3 cells
[14] = biological target: human Axl receptor on human tumor cells (UniProt P30530); test: quantitative flow cytometry (Qifikit) on Panc1 cells
[15] = biological target: human Axl receptor on human tumor cells (UniProt P30530); test: quantitative flow cytometry (Qifikit) on NCI-H226 cells
[16] = biological target: human Axl receptor on human tumor cells (UniProt P30530); test: quantitative flow cytometry (Qifikit) on MCF7 cells

Chain of human Axl receptor on human tumor cells (P30530 26-894 D266N): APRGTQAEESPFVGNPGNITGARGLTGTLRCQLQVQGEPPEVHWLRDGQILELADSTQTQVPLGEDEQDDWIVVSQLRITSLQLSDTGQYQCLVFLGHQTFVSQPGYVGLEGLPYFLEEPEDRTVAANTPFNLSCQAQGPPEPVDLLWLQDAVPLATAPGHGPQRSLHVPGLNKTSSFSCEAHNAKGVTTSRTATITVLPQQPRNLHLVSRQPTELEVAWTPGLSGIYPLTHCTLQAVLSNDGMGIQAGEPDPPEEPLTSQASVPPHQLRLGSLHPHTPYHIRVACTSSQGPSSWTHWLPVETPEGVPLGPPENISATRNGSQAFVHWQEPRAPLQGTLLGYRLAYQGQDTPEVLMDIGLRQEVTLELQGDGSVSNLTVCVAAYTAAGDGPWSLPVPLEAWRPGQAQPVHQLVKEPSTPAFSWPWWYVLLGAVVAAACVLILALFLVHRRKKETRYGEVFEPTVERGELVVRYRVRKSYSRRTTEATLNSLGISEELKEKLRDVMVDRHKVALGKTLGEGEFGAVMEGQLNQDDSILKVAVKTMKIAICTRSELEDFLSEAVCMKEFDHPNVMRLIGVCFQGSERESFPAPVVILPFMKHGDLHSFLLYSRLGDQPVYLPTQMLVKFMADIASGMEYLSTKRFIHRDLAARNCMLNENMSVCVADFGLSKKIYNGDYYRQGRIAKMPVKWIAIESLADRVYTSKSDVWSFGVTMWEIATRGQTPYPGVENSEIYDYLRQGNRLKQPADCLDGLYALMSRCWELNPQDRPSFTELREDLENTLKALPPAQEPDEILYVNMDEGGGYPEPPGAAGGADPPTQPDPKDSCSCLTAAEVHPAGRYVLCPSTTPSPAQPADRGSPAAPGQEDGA

| Substance | MFI at T24 h [1] [MFI] | % remaining Axl [2] [%] | Δ (MFI No Ab 24 h - MFI Ab 24 h) [2] [MFI] | MFI at T24 h [3] [MFI] | ABC (Qifikit) [4] [ABC] | ABC (Qifikit) [5] [ABC] | ABC (Qifikit) [6] [ABC] | Antigen binding capacity (Qifikit) [6] [ABC] | MFI at T24 h [7] [MFI] | ABC (Qifikit) [8] [ABC] | ABC (Qifikit) [9] [ABC] | ABC (Qifikit) [10] [ABC] | ABC (Qifikit) [11] [ABC] | ABC (Qifikit) [12] [ABC] | ABC (Qifikit) [13] [ABC] | ABC (Qifikit) [14] [ABC] | ABC (Qifikit) [15] [ABC] | ABC (Qifikit) [16] [ABC] |
| --- | --- | --- | --- | --- | --- | --- | --- | --- | --- | --- | --- | --- | --- | --- | --- | --- | --- | --- |
| 9G4 murine IgG1 isotype control antibody | 13 | 117 | -2 | 11 | – | – | – | – | – | – | – | – | – | – | – | – | – | – |
| MAB154 anti-Axl commercial antibody (R and D Systems) | – | – | – | – | 3950 | 55300 | > 100000 | > 100000 | 950 | 52400 | 5540 | 61200 | 17800 | > 100000 | 8420 | 36800 | 32100 | 71 |
